# Test results reported in patent US20180244758A1 (MAPP BIOPHARMACEUTICAL, published 2018).
# B1: mAb PE-05 (antibody, V domains shown)
# VH: QVQLQESGGGLVKPGRSLRLSCTASGFTFGDYAMSWFRQAPGKGLEWVGFLRSKAYGGTAEYAASVKGRFTMSRDDSKSIAYLQMNSLKTEDTAVYFCTRDGFRGSSWGYSYYGMDVWGQGTTVTVSS
# VL: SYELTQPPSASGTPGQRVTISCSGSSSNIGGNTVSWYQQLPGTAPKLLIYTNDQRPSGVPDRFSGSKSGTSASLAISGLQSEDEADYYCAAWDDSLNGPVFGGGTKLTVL
# B2: mAb PE-16 (antibody, V domains shown)
# VH: QVQLVQSGAEVTKPGASVKVSCKASGYTFTTYYMHWVRQAPGQGLEWVGIINPSGGITRYAQKFQGRVTLTRDTSTTTVYMELSSLRSEDTAVYYCARDRYPVLFATDYGMDVWGQGTTVTVSS
# VL: DIVMTQSPATLSLSPGERATLSCRASQSVSGYLAWYQQKPGQAPRLLIYDASNRATGIPARFSGSGSGTDFTLTISSLEPEDFAVYYCQQRSIWPPGVTFGGGTKVEIK
# B3: mAb PE-87 (antibody, V domains shown)
# VH: QVQLVQSGVTLVQPGGSLRVSCAASGFTFSSYAMSWVRQAPGKGLEWVSAISGLGGSTYYADSVKGRFTISRDNSKNTLYLQMNSLRAEDTAVYYCAKDHRVWAAGYHFDYWGQGALVTVSS
# VL: DIVLTQSPSTLSASVGDRVTITCRASQSISSWLAWYQQKPGEAPKLLISDASSLESGVPSRFSGSGSGTEFTLTISSLQPDDFATYYCQQYYSSPTFGGGTKVEIK
# B4: mAb PE-24 (antibody, V domains shown)
# VH: EVQLVESGGGLVQPGGSLRLSCAASGFTFSSYAMSWVRQAPGKGLEWVSEISGLGGSTYYADSAKGRFTISRDNSKSTLYLQMNSLRAEDTAVYYCAKDHRVWAPGYYFDHWGQGTLVTVSS
# VL: DIVLTQSPSTLSASVGDRVTITCRASQSISSWLAWYQQKPGKAPKLLIYDASSLESGVPSRFSGSGSGTEFTLTISSLQPDDFATYFCQQYNRSPTFGGGTKVEIK
# B5: mAb PE-47 (antibody, V domains shown)
# VH: EVQLVESGGGLVKPGGSLRLSCAASGFTFSNAWMSWVRQAPGEGLEWVGRIKSKTDGGTIDYAAPVKGRFTISRDDSKNTVYLQMTSLKTEDTAVYYCTTYTEDMQYFDWLLRGGETFDYWGQGTLVTVSS
# VL: DIQMTQSPSSLSASVGDRVTITCRASQYISTYLNWYQQKPGKAPKLLIYAAYNLQSGVPSRFSGSGSGTDFTLTISSLQPEDFATYYCQQSYSTPGRYTFGQGTKVEIK
# Tests used:
# EBOV GP = target: T1, EBOV GP (Ebola virus (EBOV), UniProt Q05320 33-637)
# T1 sequence: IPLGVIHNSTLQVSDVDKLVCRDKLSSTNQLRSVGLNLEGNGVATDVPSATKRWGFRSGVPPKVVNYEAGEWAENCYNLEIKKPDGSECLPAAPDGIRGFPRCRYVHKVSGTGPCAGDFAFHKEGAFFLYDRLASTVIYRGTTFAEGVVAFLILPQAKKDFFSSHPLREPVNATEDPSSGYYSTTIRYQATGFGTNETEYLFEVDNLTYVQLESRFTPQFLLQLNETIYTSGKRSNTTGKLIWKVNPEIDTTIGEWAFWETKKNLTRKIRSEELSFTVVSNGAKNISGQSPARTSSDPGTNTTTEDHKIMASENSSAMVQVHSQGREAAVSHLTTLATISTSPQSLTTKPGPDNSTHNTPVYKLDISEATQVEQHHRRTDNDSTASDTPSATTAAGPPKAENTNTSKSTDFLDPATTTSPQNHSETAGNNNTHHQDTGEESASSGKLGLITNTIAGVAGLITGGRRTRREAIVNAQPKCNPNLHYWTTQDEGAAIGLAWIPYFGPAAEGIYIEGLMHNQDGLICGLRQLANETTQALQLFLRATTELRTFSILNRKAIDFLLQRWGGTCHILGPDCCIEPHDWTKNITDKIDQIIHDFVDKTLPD
# [1] = target: T2, RESTV GP on rVSV particles (Reston virus (RESTV), UniProt Q66799 34-677); experiment: cell-based or functional assay
# T2 sequence: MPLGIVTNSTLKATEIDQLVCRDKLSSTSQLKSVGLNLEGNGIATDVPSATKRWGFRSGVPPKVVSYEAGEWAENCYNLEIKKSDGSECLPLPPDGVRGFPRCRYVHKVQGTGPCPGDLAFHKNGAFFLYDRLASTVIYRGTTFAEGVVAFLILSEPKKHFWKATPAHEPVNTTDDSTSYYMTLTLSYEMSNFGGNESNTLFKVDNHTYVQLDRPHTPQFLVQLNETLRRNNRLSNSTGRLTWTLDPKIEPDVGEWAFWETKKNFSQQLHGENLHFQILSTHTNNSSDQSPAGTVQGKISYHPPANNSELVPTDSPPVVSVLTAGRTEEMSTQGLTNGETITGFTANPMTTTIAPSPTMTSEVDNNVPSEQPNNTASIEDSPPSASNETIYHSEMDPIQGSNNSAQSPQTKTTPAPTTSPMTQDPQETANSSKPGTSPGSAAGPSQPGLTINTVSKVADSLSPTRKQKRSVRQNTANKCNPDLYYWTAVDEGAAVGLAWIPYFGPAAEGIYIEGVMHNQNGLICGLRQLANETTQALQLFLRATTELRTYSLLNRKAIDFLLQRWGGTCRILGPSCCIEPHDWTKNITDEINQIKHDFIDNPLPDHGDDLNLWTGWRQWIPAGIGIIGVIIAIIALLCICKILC
# [2] = target: T3, GP of authentic (wild-type) EBOV (Ebola virus (EBOV), UniProt P87666 33-676); experiment: cell-based or functional assay
# T3 sequence: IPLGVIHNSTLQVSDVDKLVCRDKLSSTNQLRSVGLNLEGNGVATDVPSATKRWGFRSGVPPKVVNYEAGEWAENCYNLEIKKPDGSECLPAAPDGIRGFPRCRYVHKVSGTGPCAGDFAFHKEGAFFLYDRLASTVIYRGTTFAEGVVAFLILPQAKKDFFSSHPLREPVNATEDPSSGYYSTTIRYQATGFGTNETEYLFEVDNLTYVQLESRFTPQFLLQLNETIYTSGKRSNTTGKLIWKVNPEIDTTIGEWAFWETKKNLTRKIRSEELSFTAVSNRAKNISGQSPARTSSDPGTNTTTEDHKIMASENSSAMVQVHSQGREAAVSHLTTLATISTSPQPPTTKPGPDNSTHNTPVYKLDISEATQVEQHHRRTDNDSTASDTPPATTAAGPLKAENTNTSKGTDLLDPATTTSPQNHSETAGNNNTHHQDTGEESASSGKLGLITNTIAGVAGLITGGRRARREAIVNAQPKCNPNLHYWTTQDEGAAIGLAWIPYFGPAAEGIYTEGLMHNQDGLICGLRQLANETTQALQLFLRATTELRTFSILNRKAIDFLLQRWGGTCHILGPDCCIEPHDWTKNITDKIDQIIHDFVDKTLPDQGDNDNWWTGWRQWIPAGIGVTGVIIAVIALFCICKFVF
# [3] = target: T4, GP of authentic (wild-type) SUDV (Sudan virus (SUDV), UniProt Q66814 33-676); experiment: cell-based or functional assay
# T4 sequence: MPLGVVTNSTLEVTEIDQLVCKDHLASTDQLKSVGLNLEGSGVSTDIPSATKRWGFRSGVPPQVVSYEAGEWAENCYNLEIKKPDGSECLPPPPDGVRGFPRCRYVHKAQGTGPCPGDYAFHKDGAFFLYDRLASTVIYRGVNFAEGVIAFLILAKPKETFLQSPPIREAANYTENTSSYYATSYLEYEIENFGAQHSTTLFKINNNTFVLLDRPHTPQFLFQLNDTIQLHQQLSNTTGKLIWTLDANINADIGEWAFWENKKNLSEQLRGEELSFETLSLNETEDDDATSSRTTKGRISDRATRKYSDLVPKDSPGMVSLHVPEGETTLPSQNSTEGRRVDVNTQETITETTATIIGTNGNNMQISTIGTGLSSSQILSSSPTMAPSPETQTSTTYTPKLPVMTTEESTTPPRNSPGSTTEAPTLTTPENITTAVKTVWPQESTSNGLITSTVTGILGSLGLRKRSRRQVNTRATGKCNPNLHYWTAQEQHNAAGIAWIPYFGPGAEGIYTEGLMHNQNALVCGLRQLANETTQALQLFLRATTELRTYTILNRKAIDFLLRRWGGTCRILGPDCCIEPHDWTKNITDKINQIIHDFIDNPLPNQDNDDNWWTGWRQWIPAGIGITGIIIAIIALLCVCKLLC
# [4] = target: GP of authentic (wild-type) BDBV (Bundibugyo virus (BDBV)); experiment: cell-based or functional assay
Binder,Kd (EBOV GP) [nM],"Neutralization (VSV-GP IC50, nM) [1] [nM]",Authentic virus neutralization IC50 [2] [nM],Authentic virus neutralization IC50 [3] [nM],Authentic virus neutralization IC50 [4] [nM]
B1,44,22,5.2,–,–
B2,0.16,–,0.1,300,0.3
B3,< 0.01,0.2,0.2,0.2,0.6
B4,1,0.2,0.7,0.2,0.6
B5,3.5,–,–,–,–
